Two substances from US20120171195A1 can be followed below.

Assay [1] deals with HLA-Cw*1601 (human) (UniProt P10321). The experiment in a line: Luminex beads; MAb 1/800; competitor rHLA-E.
The target in assay [2] is HLA-Cw*1802 (human) (UniProt P10321). The experiment in a line: Luminex beads; MAb 1/800; competitor rHLA-E.
Assay [3] deals with HLA-B*3701 (human). The experiment in a line: Luminex beads; MAb 1/800; competitor rHLA-E.
In assay [4] the target is HLA-B*5101 (human). The experiment in a line: Luminex beads; MAb 1/800; competitor rHLA-E.
The target in assay [5] is HLA-Cw*0501 (human). The experiment in a line: Luminex beads; MAb 1/800; competitor rHLA-E.
The target of assay [6] is HLA-Cw*1402 (human) (UniProt P10321). The experiment in a line: Luminex beads; MAb 1/800; competitor rHLA-E.
For assay [7], the target named is HLA-Cw*1802 (human) (UniProt P10321). The experiment in a line: Luminex beads; MAb 1/400; PBS only.
Assay [8] has as its target HLA-Cw*0801 (human) (UniProt P10321). The experiment in a line: Luminex beads; MAb 1/400; PBS only.
In assay [9] the target is HLA-Cw*0302 (human) (UniProt P10321). The experiment in a line: Luminex beads; MAb 1/400; PBS only.
For assay [10], the target named is HLA-B*5001 (B50) (human). The experiment in a line: Luminex single-antigen beads; rank of MEM-E/02 reactivity among HLA-Ia alleles.

Bounds are passed on as bounds.

With “murine monoclonal antibody (MAb) MEM-E/02”, the MFI came to 87 MFI in [1]; 35 MFI in assay [2]; 29 MFI in [3]; 99 MFI in assay [4]; 70 MFI in assay [5]; 48 MFI in assay [6]. Besides, the figures for the MFI in [7], in assay [8] and in assay [9] were 7040 MFI, 3340 MFI and 1360 MFI, respectively.

Turning to murine monoclonal antibody MAb MEM-E/02, the MEM-E/02 Reactivity Rank in assay [10] was > 65 rank.
